Tests used:
Sgcg-null mice = test: Anti-HIS immunofluorescence localization after systemic injection, Sgcg-null versus wildtype; format: in vivo, mouse
Procedure: Immunofluorescence microscopy. Mice were systemically injected with recombinant annexin A6 with a C-terminal HIS tag (R&D). Muscle was harvested and flash frozen. Muscle sections (10 μm thick) from the center of frozen-embedded muscles were collected on the cryostat (chamber, −20° C.; sample, −15° C.; catalog number CM1950; Leica, Wetzlar, Germany) for immunostaining. Tissues were fixed with 4% paraformaldehyde for 10 minutes on ice. Block and permeabilization were with 0.1% Triton (catalog number X-100; Sigma-Aldrich), 10% fetal bovine serum, and PBS for 60 minutes. For laminin detection, anti-laminin antibody was used at a dilution of 1:100 and for HIS detection, anti-HIS antibody was used at 1:100 overnight at 4° C. Hoechst labelled nuclei. Sections were PBS rinsed, incubated with secondary antibody for 1 hour, PBS rinsed, and mounted. Imaging was performed using a Zeiss Axio Observer A1 microscope (Zeiss, Oberkochen, Germany).

myofibers = test: Annexin repair cap formation after laser injury at multiple Ca2+ concentrations; format: cell-based, mouse; details: fluorescently tagged annexin expressed in myofibers; Ca2+ 0-2 mM; modified Hill equation
Procedure: (§1) Electroporation, myofiber isolation, laser injury, cap and vesicle measurement. Flexor digitorum brevis (FDB) fibers were transfected with endo-free plasmid DNA by in vivo electroporation. Methods were described previously in (Demonbreun and McNally, 2015; Demonbreun et al., 2016b; DiFranco et al., 2009). Z-stack projections were acquired from consecutive acquisitions after the final time-lapse frame, approximately 4 minutes post damage, with a […] step size between slices. Z-stack renderings were constructed in FIJI. Measurement of the cap area and feret diameter were conducted from a single slice near the middle of the z-stack using FIJI imaging tools. Fibers expressing similar levels of tagged or GCaMP5G protein were compared. GCaMP5G Ca^2+ fluorescence was measured from the acquired timelapse images, using a standard rectangular ROI, placed inside the myofiber below the site of damage using FIJI. Fluorescence was expressed as F/F0. External vesicle number and GCaMP5G area were measured from endpoint z-stacks and max projection images using FIJI. Vesicles were considered external if they were found outside the sarcolemma assessed in brightfield and fluorescent channels. All measurements were acquired from myofibers isolated from at least n≥3 mice, n≥3 myofibers per mouse.
Calcium kinetics. FDB muscle was electroporated and isolated as described above. Myofibers were damaged in Ringers solution with Ca^2+ concentrations of 2 mM, 1 mM, 0.5 mM, 0.25 mM, 0.175 mM, 0.1 mM, 0.050 mM, and 0 mM. EDTA was added as a Ca^2+ chelating agent in only in the 0 mM Ca^2+ Ringers. Myofibers were isolated directly into 2 mM, 1 mM and 0.5 mM Ringers for those experiments respectively. For experiments using less than 0.5 mM Ca^2+ myofibers were isolated in 0.5 mM Ca^2+ Ringers and then diluted with 0 mM EDTA-free Ca^2+ Ringers. For 0 mM experiments, myofibers were isolated in 0.5 mM Ca^2+ Ringers and then replaced with 0 mM Ca^2++EDTA Ringers just prior to imaging. Co-electroporation of wildtype annexin+wildtype annexin constructs was performed in one mouse foot, while the contralateral foot was co-electroporated with wildtype annexin+mutant annexin. All measurements were acquired from myofibers isolated from at least n≥2 mice, n≥3 myofibers per mouse at each Ca^2+ concentration. Area-Ca^2+ curves were fitted with a Hill Curve at Ca^2+ concentrations ranging from 0-2 mM. Kinetic parameters were calculated using Prism Graphpad.
as §1, with “(Demonbreun A R, Quattrocelli M, Barefield D Y, Allen M V, Swanson K E,” for “(Demonbreun”, “McNally E M. An actin-dependent annexin complex mediates plasma membrane repair in muscle. The Journal of cell biology. 2016; 213(6):705-18; Demonbreun A R, and McNally E M. DNA Electroporation, Isolation and Imaging of Myofibers. Journal of visualized experiments: JoVE.” for “McNally,”, “106(106):e53551;” for “Demonbreun et al., 2016b;”, “M, Quinonez M, Capote J, and Vergara J. DNA transfection of mammalian skeletal muscles using in vivo electroporation. Journal of visualized experiments: JoVE. 2009; 32(32)).” for “et al., 2009).”, “Vesicles were considered external if they were found outside the sarcolemma assessed in brightfield and fluorescent channels. All measurements were acquired from myofibers isolated from at least n≥3 mice, n≥3 myofibers per mouse.” left out

| Molecule | anti-HIS immunofluorescence at the muscle membrane (Sgcg-null mice; Sgcg-null (LGMD2C) muscle) | anti-HIS immunofluorescence at the muscle membrane (Sgcg-null mice; Sgcg-null (LGMD2C) muscle, listed as rANXA6) | anti-HIS immunofluorescence at the muscle membrane (Sgcg-null mice; uninjured wildtype muscle) | Km1/2 (repair cap area as a function of Ca2+ concentration) (myofibers) [mM] |
| --- | --- | --- | --- | --- |
| recombinant annexin A6: recombinant human annexin A6 protein with C-terminal HIS tag (5186-A6-050, R&D systems); mouse protein from Northwestern core in one cohort (protein, UniProt P08133 2-673, looked up, C-terminal His tag, recombinant human annexin A6 protein with C-terminal HIS tag (5186-A6-050, R&D systems); mouse protein from Northwestern core in one cohort) Annexin A6: AKPAQGAKYRGSIHDFPGFDPNQDAEALYTAMKGFGSDKEAILDIITSRSNRQRQEVCQSYKSLYGKDLIADLKYELTGKFERLIVGLMRPPAYCDAKEIKDAISGIGTDEKCLIEILASRTNEQMHQLVAAYKDAYERDLEADIIGDTSGHFQKMLVVLLQGTREEDDVVSEDLVQQDVQDLYEAGELKWGTDEAQFIYILGNRSKQHLRLVFDEYLKTTGKPIEASIRGELSGDFEKLMLAVVKCIRSTPEYFAERLFKAMKGLGTRDNTLIRIMVSRSELDMLDIREIFRTKYEKSLYSMIKNDTSGEYKKTLLKLSGGDDDAAGQFFPEAAQVAYQMWELSAVARVELKGTVRPANDFNPDADAKALRKAMKGLGTDEDTIIDIITHRSNVQRQQIRQTFKSHFGRDLMTDLKSEISGDLARLILGLMMPPAHYDAKQLKKAMEGAGTDEKALIEILATRTNAEIRAINEAYKEDYHKSLEDALSSDTSGHFRRILISLATGHREEGGENLDQAREDAQVAAEILEIADTPSGDKTSLETRFMTILCTRSYPHLRRVFQEFIKMTNYDVEHTIKKEMSGDVRDAFVAIVQSVKNKPLFFADKLYKSMKGAGTDEKTLTRIMVSRSEIDLLNIRREFIEKYDKSLHQAIEGDTSGDFLKALLALCGGED | localized to the muscle membrane | increased | minimal |  |
| annexin A6: annexin A6 with carboxyl-terminal turboGFP or tdTomato tag, expressed from plasmid electroporated into myofibers (protein, UniProt P14824 2-673, looked up, C-terminal turboGFP or tdTomato tag, annexin A6 with carboxyl-terminal turboGFP or tdTomato tag, expressed from plasmid electroporated into myofibers) Annexin A6: AKIAQGAMYRGSVHDFPEFDANQDAEALYTAMKGFGSDKESILELITSRSNKQRQEICQNYKSLYGKDLIEDLKYELTGKFERLIVNLMRPLAYCDAKEIKDAISGVGTDEKCLIEILASRTNEQMHQLVAAYKDAYERDLESDIIGDTSGHFQKMLVVLLQGTRENDDVVSEDLVQQDVQDLYEAGELKWGTDEAQFIYILGNRSKQHLRLVFDEYLKTTGKPIEASIRGELSGDFEKLMLAVVKCIRSTPEYFAERLFKAMKGLGTRDNTLIRIMVSRSELDMLDIREIFRTKYEKSLYSMIKNDTSGEYKKALLKLCGGDDDAAGQFFPEAAQVAYQMWELSAVSRVELKGTVCAANDFNPDADAKALRKAMKGIGTDEATIIDIVTHRSNAQRQQIRQTFKSHFGRDLMADLKSEISGDLARLILGLMMPPAHYDAKQLKKAMEGAGTDEKTLIEILATRTNAEIRAINEAYKEDYHKSLEDALSSDTSGHFRRILISLATGNREEGGENRDQAQEDAQVAAEILEIADTPSGDKTSLETRFMTVLCTRSYPHLRRVFQEFIKKTNYDIEHVIKKEMSGDVKDAFVAIVQSVKNKPLFFADKLYKSMKGAGTDEKTLTRVMVSRSEIDLLNIRREFIEKYDKSLHQAIEGDTSGDFMKALLALCGGED |  |  |  | 0.12 |
